{"source": "patent US20230374088A1", "molecular_target": "mNeonGreen-tagged full length Gli2 (human) (UniProt P10070)", "test": "cell-based or functional assay", "data": [{"substance": "mRuby-tagged Kif7-CC (460-600aa) with ER localization signal (from UniProt Q2M1P5 460-600)", "values": [{"measurement": "amount of Gli2 in the nucleus as a percentage of total Gli expression (mNeonGreen intensity), HeLa cells", "result": "< 25", "unit": "%"}]}]}
